From the supplement of paper PMC12042874
± gives the uncertainty stated by the source.

Assay: amyloid nucleation score (Sup35N fusion, yeast selection) (log enrichment); library NNK1; higher = more nucleation; inactive = no reads after selection
Procedure, shortened: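 Output and input plasmid inserts were sequenced by Illumina after psi-negative yeast carrying Sup35N fused to peptides of 20 random codons had been induced 24 hours with 100 μM copper sulfate and grown 7 days at 30°C on medium lacking adenine and uracil. The nucleation score is the DiMSum log enrichment of output over input reads, centred on the mode score of non-aggregating sequences. Sequences with under 100 input reads were excluded.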

Substance | amyloid nucleation score
QPNSWELWPCSDLRIRLVEE | 0.104 ± 0.34
QQLYINC | 0.199 ± 0.47
QRIGHLVLDSVGRTSCVMGA | 0.386 ± 0.41
QRLFRYNPTKSRGLCNNTWA | 0.59 ± 0.22
QRMLDTLH | -0.134 ± 1.7
QRQNVYVGGYIANMVHGSGC | 1.27 ± 0.58
QRRALHTL | -0.069 ± 0.46
QRSRHSIFQGILRGSNSSWD | 1.12 ± 0.69
QSDKCCLMYGECVHVVC | 2.83 ± 0.069
QSNSTYYGGSSRSGEKFPLG | 3.83 ± 0.083
QSRSL | 0.703 ± 0.66
QTLCCETRWSGENRSDAFRV | -0.596 ± 0.79
QTSSFFCSV | -2.12 ± 2.4
QVLDTGVVTDWSVIPFGRSY | 0.483 ± 0.65
QVNDIGP | -0.341 ± 0.22
QVTTSPQ | -0.387 ± 0.56
QVVRIYQVQGLWIMVHR | 1.96 ± 0.28
QVWITWVGRKLPHRGKTVGN | -0.379 ± 0.53
QWCDKVFL | -0.687 ± 0.4
QWCNIVGSMIVDITQELML | 1.75 ± 0.25
QWLAVVVIKVGLTWQYRFGG | 0.198 ± 0.91
QYFKPGVASPSGDPVFKKKV | -0.404 ± 0.43

Substance | amyloid nucleation score
QYLFIYFLALS | -1.27 ± 0.53
QYVPNTLDNSPDAVGMSNIY | -0.29 ± 1.7
RADWYASAGKRCGHLQG | -0.148 ± 0.3
RALGIDIRIFMVDDNSAFSI | 0.347 ± 1.1
RALSVRSRQLG | 0.135 ± 0.97
RALVDRLSTS | 0.472 ± 0.82
RAPLLMSVTLLRHQFCTRME | 1.8 ± 0.21
RARTKAWWMDWSGYRRGGHL | 0.118 ± 0.58
RAVGDM | -0.241 ± 0.52
RCEVESIRNGLAKAGSVTMR | 0.515 ± 0.38
RCGGM | -0.381 ± 0.64
RCIPLNNNFYASKQLLMSME | 0.259 ± 0.62
RCLMPYNYE | 0.952 ± 0.49
RCNSDESYL | 0.078 ± 0.42
RCRYVRLETSLC | -0.083 ± 0.47
RCRYYCNR | -0.152 ± 0.48
RCSTPRCSPL | -0.237 ± 0.62
RCWGRAYMYRPCCISV | -1.06 ± 0.8
RCYIDYSVEFRLHMIKMKTR | -0.227 ± 0.65
RDAIYYKICLAQPRSF | -0.465 ± 0.38
RDCPGL | -0.95 ± 2.7
RDHMAYYMSVVGSSKNPLRR | inactive

Substance | amyloid nucleation score
RDSHSLMVVGFRYELSQGLK | 0.496 ± 1.1
RDSNVGIFHNSR | -1.35 ± 0.87
RDYFTN | 0.789 ± 0.9
REDWSTLEPYPHYDTAIGRS | 1.24 ± 0.8
REEYYGIPSEINGHTTLVYS | 1.03 ± 0.72
REFGLLAWVELLFWATFR | -0.676 ± 0.94
REGATIPWFRCNRLE | -0.167 ± 0.33
REIIGRLLSVRTSLAEYNSG | -0.514 ± 0.91
RFCGVMESERTVIRKCREVG | 0.095 ± 0.42
RFCISNARRRFLRPFGSYL | 0.072 ± 1.1
RFCRSIAFA | 0.237 ± 0.32
RFEGERRVVG | -0.035 ± 0.3
RFEMNCWSC | -0.802 ± 0.39
RFFCDCFFGSRGE | 1.88 ± 0.36
RFFCSD | 0.641 ± 0.97
RFFRISWIFMSDSRPTRSDF | 0.793 ± 0.84
RFGYFFHLVGAGEGHGKGAC | 0.686 ± 0.59
RFNSYEVVIRVWRDSMISEG | 1.09 ± 0.78
RFNWSSDLCSFKTPLSKHVG | 0.258 ± 0.41
RFRYDTVMMNMFLNRVSFGG | 1.38 ± 0.4
RFSWPWTDYNMKNYA | -0.119 ± 0.21
RFTGQWWYVFSLWAILSRIK | 0.357 ± 0.55

Substance | amyloid nucleation score
RFVLVMYMESLKMHCSLTYT | -0.381 ± 0.27
RFVNKGGT | -0.325 ± 0.69
RFYMWYLVLEVLEIGKLADP | -1.04 ± 2.7
RGDAIMAWGSVVRYIHYILY | 1.51 ± 0.5
RGDLSYYCRSNN | -0.5 ± 1.4
RGFADLCAFEDMCIRFDESL | 0.878 ± 0.64
RGFCTGNDVF | inactive
RGGKGPRFVYNRFISRAAGR | -0.869 ± 0.74
RGGRWLMATWMMPGNGCLAA | 0.708 ± 0.52
RGICWWLNIHWGKAMDMLGP | 0.428 ± 0.97
RGLYFNALSR | -0.167 ± 0.43
RGNRHTSGNVTL | 0.045 ± 0.35
RGNSFIRRY | 0.285 ± 0.47
RGPLDP | 0.361 ± 0.45
RGRVSNY | -0.455 ± 1.4
RGSIRIKDMTCGLEIGIALR | -0.001 ± 0.44
RGSQGLVNLYIAFPMECLGI | 3.73 ± 0.087
RHAKRLWRV | -0.574 ± 0.78
RHISAAEPQSVESMIAKGN | -0.054 ± 0.98
RHIYVSVNERLYVEFNYIAG | 2.19 ± 0.34
RHMHSQFPAGLLIVGLRIVW | 0.915 ± 0.75
RHVGVAGFRFLPGPCDWPAR | 3.94 ± 0.14
